This series can be described thus: soluble on expression in E. coli; label from the status in PepcDB or PDB records.
For the sequence “MNKVVLLCRPGFEKECAAEITDKAGQREIFGFARVKENAGYVIYECYQPDDGDKLIRELPFSSLIFARQWFVVGELLQHLPPEDRITPIVGMLQGVVEKGGELRVEVADTNESKELLKFCRKFTVPLRAALRDAGVLANYETPKRPVVHVFFIAPGCCYTGYSYSNNNSPFYMGIPRLKFPADAPSRSTLKLEEAFHVFIPADEWDERLANGMWAVDLGACPGGWTYQLVKRNMWVYSVDNGPMAQSLMDTGQVTWLREDGFKFRPTRSNISWMVCDMVEKPAKVAALMAQWLVNGWCRETIFNLKLPMKKRYEEVSHNLAYIQAQLDEHGINAQIQARQLYHDREEVTVHVRRIWAAVGGRRDER”, the “soluble on expression in E. coli” value is on record as “soluble”.

Turning to “MGSDKIHHHHHHMHLLFVTSIVPDGALASGYEIANAAIIAALRRAGARVTVIGFTWPGKVTADPENTVVLGEIDVRTESASALRKLAWVRKAMLSGLTFASVKLRAVSEHEVEAALEQAGPFDGYVLNSVQFAGAFEKLFEDKPSIFVAHNVEHLSARENEAAAGGVFQRLLFRREARLLKVVEERLCRRARFVFTLAEEDRAALGVASNDRSAVLPLVTGARAPVRNGPRRIDCDAALIGTWTWQPNRIGLDWFLGKVVPHLRPGFRIRIAGHMPSGVTSAHPGVEFVGRVADARAFVCGAAVIPLISTAGSGVQLKTIETFELGLPSVATSRSLRGIGHRPDNCVVTDDPAGFARALEAAAADIRDVDGGAFYRQQVKALDAAIRYGLSKLGAVRQEVLA”, the “soluble on expression in E. coli” value is recorded as “not soluble”.

For “MALSSAPILITGASQRVGLHCALRLLEHGHQVIISYRTEHASVAQLRQAGAHTLHGDFSSEASIMAFIEQLKSHTSSLRAIVHNASEWLAETPGDEAENFTRMFSVHMLAPYLINLHCEALLHASDVADIVHISDDVTRKGSSKHIAYCATKAGLESLTLSFAARFAPLVKVNGIAPALLMFQPKDDAAYRANALAKSAMGIEPGAEVIYQSLRYLLDSTYVTGTTLTVNGGRHV”, the “soluble on expression in E. coli” value was “not soluble”.

On to “MKTAAYMIHCLTNMHVGKGDATYEVVDKCVQRDVTTGMPCIYSSSLKGALRQFFSKQGFAELNYVFGKDQSRDKKNNGNEKNEEEHSVGNFTFFQANLLAYPVQTTQEGATYILKTNKTLQDPIKELANLFSAPSNIEEMLPKETEKDLSNETLEQLPVIARNQLDNGKSENLWYEEVVPAESRFVFFVSYDDEEIFTKFDKIIQEKVIQIGANGSIGYGFCKIANVTNPFKK”, for which the “soluble on expression in E. coli” value is on record as “soluble”.

For “MADSELQSAIGNNEECVNLFSDCDNVFVVAGISPLIDFQNNLNRIENYLCQKKIVGVKLYPGHEQFYLNDPRLESVFLLCEAFDVPVAVHTGWDNPHFNAPALFADIAGKHPKLKIVNCHLWYPKIDYCYEVTRDYQNIYYDISSLADDKGNKSKITEVLHRIANENPHRLIFGSDYGMCDPMAHIELVDRLPVSDETREMIFYKNAVGLYGLSRING”, the “soluble on expression in E. coli” value is recorded as “soluble”.

Take “MPSSTSSSLENLSVSVCAAGDSAAYQRNSVFGDDVVIVAAYRSPLCKAKRGGLKDTYPDDILAPVLKALIEKTNINPAEVGDIVVGSVLGAGSQRASECRMAAFYAGFPETVPVRTVNRQCSSGLQAVADVAAAIKAGFYDIGIGAGLESMTANPMAWEGSVNPKVKTMAQAQDCLLPMGITSENVAQKFSITRQEQDQAAVGSHRKTAAATAAGRFKDEIIPIKTKIVDPKTGDEKPVTISVDDGIRPGTSLADLAKLKPVFRKDGSTTAGTSSQVSDGAGAVLLMKRSIALQKGLPILGVFRTFAAVGVPPSIMGIGPAVAIPAAVKAAGLQIDDIDLFEINEAFASQFVYCQKKLEIDPQKINVNGGAMAIGHPLGATGARCVATLLHEMKRRGRDCRFGVVSMCIGTGMGAAAVFERGDACDELCNAKAKHHHHHH”: the “soluble on expression in E. coli” value was “soluble”.

Take “MGSDKIHHHHHHMDYDYIIVGAGAAGLSLAYHLGQSALADQTILIIDPNHTRQNDRTWCFWEVGDGPFEAVVSRRWEHLWLYDKHWSARMAIAPYRYKLIQGIDFYQFVDHWLAQRPNITRLQGSVDRLVELPEGVAAVVGGRQYTARYAFNSVYRPVPTPPGYHTWLQHFKGWVIKTPQPVFDAEAATFMDFRIPQAGDVRFGYVLPFDTCTALVEYTIFSPQLVSQTEYEIGLQRYIAEQLGIDRYEITHVEYGVIPMSDVPLPLRPSPHVLNIGTAGGMSKPSTGYTFQRIQRQTRQIVASLTKEGHPFYRQPLFNRHALMDSILLNVLDAGRTPGHRFFANLFRHNPIQRVLRFLDEETTIAEDIALMSTVEMMPFAIAALAVFWGRMSSLGRREWEMG”: the “soluble on expression in E. coli” value was “not soluble”.

Source of the values: the DeepSol protein solubility set.
